Reference: patent US8865648B2, “Monomeric and dimeric forms of adiponectin receptor fragments and methods of use” (Siemens Healthcare Diagnostics Inc., priority 2009, dated 2014)
Bridge positions count the residues as written; N and C are the ends. Ends that are not written are not given here. I, II: the chains in the order shown.

Assays:
ADAM-17 = ADAM-17 (Homo sapiens, UniProt P78536); experiment: Inhibition of enzymes: ADAM-17 inhibition; type: biochemical; settings: ADAM-17 at level of 400 ng/ml
Chain of ADAM-17 (P78536 215-824): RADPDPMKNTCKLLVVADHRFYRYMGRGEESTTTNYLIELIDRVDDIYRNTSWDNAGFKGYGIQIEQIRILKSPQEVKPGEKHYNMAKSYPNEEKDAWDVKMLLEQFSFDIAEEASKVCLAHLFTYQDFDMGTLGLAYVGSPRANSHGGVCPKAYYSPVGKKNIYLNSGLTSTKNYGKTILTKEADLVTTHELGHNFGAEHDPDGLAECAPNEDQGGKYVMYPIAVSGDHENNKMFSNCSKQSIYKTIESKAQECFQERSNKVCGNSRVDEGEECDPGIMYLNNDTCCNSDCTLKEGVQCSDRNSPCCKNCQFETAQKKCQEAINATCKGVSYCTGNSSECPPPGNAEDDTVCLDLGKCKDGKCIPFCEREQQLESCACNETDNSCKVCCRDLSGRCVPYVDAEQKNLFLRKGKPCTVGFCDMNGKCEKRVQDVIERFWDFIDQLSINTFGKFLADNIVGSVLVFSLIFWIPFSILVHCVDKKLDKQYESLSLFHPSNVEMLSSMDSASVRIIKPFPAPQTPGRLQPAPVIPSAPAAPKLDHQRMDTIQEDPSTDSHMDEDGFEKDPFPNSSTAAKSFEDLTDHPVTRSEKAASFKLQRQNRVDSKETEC
Experimental: (§1) Inhibition of insulin degradation enzyme (IDE) is a biological function of CTF. The inhibition reduces insulin degradation in the liver and other tissues and thereby increases insulin levels in the blood. The enzymes for cleavage of the dimers are also potential therapeutic targets. Each of the peptides synthesized in Example 1 was tested for their effect on cleavage and target enzymes (ADAM-17 and IDE at level of 400 ng/ml).

[1] = biological target: insulin degradation enzyme (IDE) (Homo sapiens, UniProt P14735); experiment: Inhibition of enzymes: insulin degradation enzyme (IDE) inhibition; type: biochemical; settings: for IDE Inhibition (90% inhibition at): IDE at level of 400 ng/ml, peptide level giving 90% inhibition
Experimental: as §1

[2] = when administered to patients; cited from earlier work

ADAM-17 Inhibition (observed) (ADAM-17)	IDE Inhibition (90% inhibition at) [1]	Molecule	insulin-sensitizing effect [2]	activity of heterodimer compared with corresponding homodimers ([1]; comparison drawn from the data in TABLE 2)
Negative	Negative	GGCSEEDAL [R2 CTF9]	–	–
Negative	negative	GGCTDDTLL [R1 CTF9]	–	–
Negative	–	HFHGVSNLQEFRFMIGGGCSEEDAL [R2 CTF25]	–	–
Negative	–	HFYGVSNLQEFRYGLEGGCTDDTLL [R1 CTF25]	–	–
Negative	Negative	HVLVVAAAFVHFYGVSNLQEFRYGLEGGCT [R1 CTF30]	–	–
Negative	negative	LQEFRYGLEGGCTDDTLL [R1 CTF17]	–	–
Negative	–	R1 CTF25 R2 CTF25: SEQ ID NO:5 linked via a disulfide bond to SEQ ID NO:6 (chain 1 HFYGVSNLQEFRYGLEGGCTDDTLL; chain 2 HFHGVSNLQEFRFMIGGGCSEEDAL; disulfide I:19-II:19 (inferred))	–	–
Positive	–	VVAAAFVHFYGVSNLQEFRYGLEGGCTDDTLL [R1 CTF32, C-terminal fragment of ADIPOR1, 32 amino acids]	acted as an insulin-sensitizing agent	–
Positive	–	VVAGAFVHFHGVSNLQEFRFMIGGGCSEEDAL [R2 CTF32, C-terminal fragment of ADIPOR2, 32 amino acids]	–	–
Positive	–	R1 CTF32 R2 CTF32: SEQ ID NO:1 linked via a disulfide bond to SEQ ID NO:2 (disulfide I:26-II:26 (inferred)) chain 1: VVAAAFVHFYGVSNLQEFRYGLEGGCTDDTLL chain 2: VVAGAFVHFHGVSNLQEFRFMIGGGCSEEDAL	–	more active than the corresponding homodimers
Positive	–	R2 CTF32 R2 CTF32: SEQ ID NO:2 linked via a disulfide bond to SEQ ID NO:2 (disulfide I:26-II:26 (inferred)) chain 1: VVAGAFVHFHGVSNLQEFRFMIGGGCSEEDAL chain 2: VVAGAFVHFHGVSNLQEFRFMIGGGCSEEDAL	–	–
Positive	–	R1 CTF32 R1 CTF32: SEQ ID NO:1 linked via a disulfide bond to SEQ ID NO:1 (disulfide I:26-II:26 (inferred)) chain 1: VVAAAFVHFYGVSNLQEFRYGLEGGCTDDTLL chain 2: VVAAAFVHFYGVSNLQEFRYGLEGGCTDDTLL	–	–
